# Values joined by “and” are separate entries in the source; they are usually repeats but may differ in a detail not shown here. Equal values may be shown once.
# Target: GroEL14 as used with the substrate proteins NanA and DapA (E. coli) (UniProt P0A6F5)
# Assay: native MS; CE-MS; 6 µM GroEL14 with 6 or 12 µM substrate monomers, denatured in 6.5 M GuHCl and 9 mM DTT and diluted 30-fold into GroEL14 buffer pH 7.5 (200 mM GuHCl, 0.3 mM DTT left); no ATP, no GroES; BGE 50 mM ammonium acetate pH 6.7
binder,measurement,value
"dihydrodipicolinate synthase, denatured monomer (DapA) (enzyme) MFTGSIVAIVTPMDEKGNVCRASLKKLIDYHVASGTSAIVSVGTTGESATLNHDEHADVVMMTLDLADGRIPVIAGTGANATAEAISLTQRFNDSGIVGCLTVTPYYNRPSQEGLYQHFKAIAEHTDLPQILYNVPSRTGCDLLPETVGRLAKVKNIIGIKEATGNLTRVNQIKELVSDDFVLLSGDDASALDFMQLGGHGVISVTANVAARDMAQMCKLAAEGHFAEARVINQRLMPLHNKLFVEPNPIPVKWACKELGLVATDTLRLPMTPITDSGRETVRAALKHAGLL","share of the total signal intensity, GroEL14-DapA2 complex",80%
same,stoichiometry N (DapA monomers per GroEL14),1 and 2

# Reference: publication PMC10953559
